From the supplement of paper PMC9170038

System: MS2 coat protein
Experiment: apparent KD of MS2 coat protein; designed switch direction (-1 OFF switch, 1 ON switch): -1; higher = weaker reporter binding
Summary of the method: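 SNAP-549-labelled MS2 coat protein was titrated, doubling from 0.7 or 1.5 nM to 3 µM, over designed RNA switches transcribed on Illumina chips by stalled E. coli RNA polymerase. Runs were done without input, with 200 uM small-molecule ligand, or with an oligonucleotide input. Apparent KD is the per-design median over clusters of curve-fitted normalised fluorescence.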

[1] = Eterna round: R95, input ligand: FMN 200 uM
[2] = Eterna round: R95, input ligand: microRNA oligo, concentration not stated
[3] = Eterna round: R95, input ligand: none
[4] = input ligand: microRNA oligo, concentration not stated

Sequence | apparent KD of MS2 coat protein (input ligand: FMN 200 uM) [nM] | apparent KD of MS2 coat protein (input ligand: none) [nM] | apparent KD of MS2 coat protein [1] [nM] | apparent KD of MS2 coat protein [2] [nM] | apparent KD of MS2 coat protein [3] [nM] | apparent KD of MS2 coat protein [4] [nM]
UGCCGUAGAGGAUAUACAUUGAAAUAGAUUCAUGUAAAACUACAUGAGGAUCACCCAUGUAGAAGGCUAUGGCU [JL-ex2-4.34 Eli mod] (Eterna round: R97, puzzle: Exclusion 2) | 68.4 | 23 | – | – | – | –
UGCCGUAGAGGAUAUACAUUGAAUAAGAUUCAUGUAAAACUACAUGAGGAUCACCCAUGUAGAAGGCUAUGGCU [JL-ex2-4.37 Eli mod] (Eterna round: R97, puzzle: Exclusion 2) | 38.6 | 14.7 | – | – | – | –
UGCCUACAUGAGGAUCACCCAUGUGAGGAUAUCCUGCGAGGAUCAAAAGAUCCUCGUGGGAGAAGGCACAUGAA [Omei Ex1 B1] (Eterna round: R97, puzzle: Exclusion 1) | 146 | 38.5 | – | – | – | –
UGCCUUUGAGGAUAUACAUAGAAAUAGAUUCAUGUAAAACUACAUGAGGAUCACCCAUGUAGAAGGCAAGGGCU [Mat - Exclusion 2 - JL Mod - D52] (Eterna round: R97, puzzle: Exclusion 2) | 83.6 | 24 | – | – | – | –
UGCGUUAGAGGAUAUACGUAGAACUAGGUUCAUGUAAAACUACAUGAGGAUCACCCAUGUAGAAGGCUAGCGCU [Mat - Exclusion 2 - JL Mod - D43] (Eterna round: R97, puzzle: Exclusion 2) | 20.4 | 15.4 | – | – | – | –
UGCUACGGAGGAUAUACAUGAGGAUCACCCAUGUGUGAGAUUUGGCCGAGAGGCCAAUGUAGAAGGCCGUAGCU [jl-ex3-4.20 jl mod] (Eterna round: R97, puzzle: Exclusion 3) | 371 | 35.9 | – | – | – | –
UGCUAGUCAGGAUAUACGAACAUGUCAAAAGACGUGAAGGGACAUGAGGAUCACCCAUGUAGAAGGGACUAGCG [salish99_ex2_r3_007] (puzzle: Exclusion 2) | – | – | 144 | 27.2 | 27.9 | –
UGGCGUUAAGGAUAUACAUGAGGAUCACCCAUGUUUCGGGAGAGCCAUUGAGCCGCAAGUAGAAGGUAGUACCC [Eternabot (L2) Solution 23] (Eterna round: R97, puzzle: Exclusion 3) | 37.4 | 47.9 | – | – | – | –
UGGCUAAGAGGAUAUACAUUGAAUAAGAUUCAUGUAAAACUACAUGAGGAUCACCCAUGUAGAAGGCUUGGCCU [Mat - Exclusion 2 - JL Mod - D72] (Eterna round: R97, puzzle: Exclusion 2) | 25.4 | 17.4 | – | – | – | –
UGGGUACUCCAUAGAAGAGACAUGAGGAUCACCCAUGUAGGACAAGCUUUUUGCUCGUCUUAAGAUGAGAGAUAGGA [JR_SV3TOV1_Sub013] (puzzle: Sensor v3, turn-off variant 1) | – | – | 143 | 114 | 126 | –
UGGGUACUCCAUAGAAGAGACAUGAGGAUCACCCAUGUAGGGCAAGCUUUUUGCUCGUCUUAGGUUGAGGGAUAGGA [JR_SV3TOV1_Sub015] (puzzle: Sensor v3, turn-off variant 1) | – | – | 166 | 80.7 | 280 | –
UGGUCACAUGAGGAUCACCCAUGUCAGGAUAUCGUCACUGGAGCUUCGGCUCCAGUGACGAGAAGGGACAUAAU [E1/6-A1] (Eterna round: R97, puzzle: Exclusion 1) | 47 | 394 | – | – | – | –
UGGUGUGAAGGAUAUACAUGAGGAUCACCCAUGUAUGAGGUGGAGGUUGAGGUGGAGGGUAGAAGGUCAGGUGG [JR_Exclusion3_Sub012] (puzzle: Exclusion 3) | – | – | – | 26.8 | – | –
UGGUGUGAAGGAUAUACAUGAGGAUCACCCAUGUAUGUGGUGUGUGUUGAGGUGGAGGGUAGAAGGUCAGGUGG [JR_Exclusion3_Sub014] (puzzle: Exclusion 3) | – | – | – | 35.9 | – | –
UGUAACCUAGGAUAUACAUGAGGAUCACCCAUGUAAUGUAGUAUAGUGUGUGUAAGGUGUAGAAGGAGGAAUGU [LRO-Excl05-23-Smart Aleck] (Eterna round: R97, puzzle: Exclusion 3) | 76.2 | 52.6 | – | – | – | –
UGUACGAUGCGUGCUGACAUGCGUCGUGCAGCAAGCUUUACAUGAGGAUCACCCAUGUCCUCACUUGCUCGUCUUGU (puzzle: Sensor v3, turn-off variant 2) | – | – | 643 | 21.3 | 490 | –
UGUACGAUGCGUGCUGACAUGCGUCGUGCAGCAGGUGAUACAUGAGGAUCACCCAUGUCCUCAUUUGCUCGUCUUGA [Mat - Sensor v3 - Turn-off var 2 - D20] (puzzle: Sensor v3, turn-off variant 2) | – | – | 68.5 | 475 | 75.2 | –

Sequence | apparent KD of MS2 coat protein (input ligand: FMN 200 uM) [nM] | apparent KD of MS2 coat protein (input ligand: none) [nM] | apparent KD of MS2 coat protein [1] [nM] | apparent KD of MS2 coat protein [2] [nM] | apparent KD of MS2 coat protein [3] [nM] | apparent KD of MS2 coat protein [4] [nM]
UGUACUAACACGAUAGUGUUAGUACAAUAAGCUUGUGUUACAUGAGGAUCACCCAUGUCCUCAUAAGCUCGUCUUAU [Mat - Sensor v3 - Turn-off var 2 - D55] (puzzle: Sensor v3, turn-off variant 2) | – | – | 109 | 141 | 105 | –
UGUACUAACACGAUAGUGUUAGUACUAUAAGCUUGUGUUACAUGAGGAUCACCCAUGUCCUCAUAGGCUCGUCUUAU [Mat - Sensor v3 - Turn-off var 2 - D87] (puzzle: Sensor v3, turn-off variant 2) | – | – | 646 | 47.5 | 446 | –
UGUACUAUGCGAGCUGACUUGCGUAGUGCAGCAAGUGAAACAUGAGGAUCACCCAUGUCCUCAUUUGCUCGUCUUAU [SL-sv3-2.01 JL mod] (puzzle: Sensor v3, turn-off variant 2) | – | – | 23.3 | 337 | 22 | –
UGUACUAUGCGAGCUGACUUGCGUAGUGCAGCAGGUGUAACAUGAGGAUCACCCAUGUCCUCAUUUGCUCGUCUUAU [SL-sv3-2.05 JL mod] (puzzle: Sensor v3, turn-off variant 2) | – | – | 347 | 297 | 414 | –
UGUACUAUGCGUGCUGACAUGCGUAGUGCAGCAGGUGUAACAUGAGGAUCACCCAUGUCCUCAUUUGCUCGUCUUAA [Mat - Sensor v3 - Turn-off var 2 - D14] (puzzle: Sensor v3, turn-off variant 2) | – | – | 207 | 335 | – | –
UGUACUAUGCGUGCUGACAUGCGUAGUGCAGCAGGUGUUACAUGAGGAUCACCCAUGUCCUCAUUUGCUCGUCUUAA [Mat - Sensor v3 - Turn-off var 2 - D17] (puzzle: Sensor v3, turn-off variant 2) | – | – | 205 | 219 | 177 | –
UGUAGAGUGGUAGGAUAUCCGUCUGUUUCAGUCGGAGAAGGACCACAGUCACUGGGUCCAUGUUUCAUGGAGACCUGAUCUACU [pwkr exNG1 F6.10] (Eterna round: R96, puzzle: Exclusion NG 1) | 185 | 195 | – | – | – | 49
UGUAGAGUGGUAGGAUAUCCGUCUGUUUCAGUCGGAGAAGGACCACAGUCACUGGGUCCUUAUAUGGGUGACCAUGUAUCUACU [pwkr exNG1 F6.5] (Eterna round: R96, puzzle: Exclusion NG 1) | 652 | 369 | – | – | – | 303
UGUAGAUCUACGCUUGCGUGGAUCUGCUUAGCAAGUGAUACAUGAGGAUCACCCAUGUCCUCAUUUGCUCGUCUUAU [JL turnoff v2 99.01] (puzzle: Sensor v3, turn-off variant 2) | – | – | 15.7 | 212 | 14 | –
UGUCAGAUGGUAGGAUAUCCAUAUCGAGUGACCCUUUCAUAACAUGAGGAUCACCCAUGUCGGUGGGAGAAGGGCUGUAUGGUG [salish99_ExNG02_R04_025] (Eterna round: R96, puzzle: Exclusion NG 2) | 26.8 | 24.6 | – | – | – | 19.1
UGUCAGAUGGUAGGAUAUCCAUAUCGAGUGACCCUUUCCUAACAUGAGGAUCACCCAUGUCGGUGGGAGAAGGGCCGUAUGGUG [salish99_ExNG02_R04_033] (Eterna round: R96, puzzle: Exclusion NG 2) | 11.1 | 15.2 | – | – | – | 14.2
UGUCAGAUGGUAGGAUAUCCAUAUCGAGUGACUCUUUCAUAACAUGAGGAUCACCCAUGUCGGUGGGAGAAGGGCCGUAUGGUG [salish99_ExNG02_R04_027] (Eterna round: R96, puzzle: Exclusion NG 2) | 22.9 | 25.2 | – | – | – | 14.5
UGUCAGAUGGUAGGAUAUCCAUAUCGCGUGUCCCUUUCCUAACAUGAGGAUCACCCAUGUCGGUGGGAGAAGGGCCGUAUGGUG [salish99_ExNG02_R04_035] (Eterna round: R96, puzzle: Exclusion NG 2) | – | – | – | – | – | 9.49
UGUCUUCAUAUCACAUGAGGAUCACCCAUGUUAUUCAUCUCGUAGGAUAUCGAGGUUUUUUAUUUCGAGAAGGACGUAUUGUUU [JR_ExcNG3_Sub077] (Eterna round: R96, puzzle: Exclusion NG 3) | 215 | 153 | – | – | – | 135
UGUGCGUAUGUGAGGAUAUGCUGGUCCUUGGAUCGGCAGAAGGCACAUGAGGAUCACCCAUGUGGUGUCGUUCA [salish99_Bmod_ex4_098] (puzzle: Brourd's mod of Exclusion 4) | – | – | – | 208 | – | –
UGUGCGUAUGUGAGGAUAUGCUGGUCCUUGGCUCGGCAGAAGGCACAUGAGGAUCACCCAUGUGGUGUCGUACU [salish99_Bmod_ex4_067] (puzzle: Brourd's mod of Exclusion 4) | – | – | – | 75.6 | – | –
